Assay results taken from patent publication US20120058906A1.

Tests used:
[1] = molecular target: rHuman CD44/Fc Chimera, CF (R&D Systems Cat#3660-CD) (human) (UniProt P16070); experiment: MSD ECL multi-spot assay, antigen spotted on plate, Fab 0.25 uM; blank spot 3693
[2] = molecular target: rHuman HGF R/c-MET/Fc Chimera, CF (R&D Systems Cat#358-MT/CF) (human) (UniProt P08581); experiment: as above
[3] = molecular target: rHuman CD44/Fc Chimera, CF (R&D Systems Cat#3660-CD) (human) (UniProt P16070); experiment: ECL (MSD multi-spot) titration, Fab at 0.0625 uM; blank spot 1738
[4] = molecular target: rHuman CD44/Fc Chimera, CF (R&D Systems Cat#3660-CD) (human) (UniProt P16070); experiment: ECL (MSD multi-spot) titration, Fab at 0.00391 uM; blank spot 576
[5] = molecular target: rHuman CD44/Fc Chimera, CF (R&D Systems Cat#3660-CD) (human) (UniProt P16070); experiment: ECL (MSD multi-spot) titration, Fab at 0.25 uM; blank spot 6344
[6] = molecular target: rHuman CD44/Fc Chimera, CF (R&D Systems Cat#3660-CD) (human) (UniProt P16070); experiment: ECL (MSD multi-spot) titration, Fab at 0.01563 uM; blank spot 906

- ECL signal [1]: 10400
- ECL signal [2]: 5910
- ECL signal [3]: 6750
- ECL signal [4]: 1300
- ECL signal [5]: 23000
- ECL signal [6]: 3180
Substance: Fab VH1-46_IGHD2-15*01_IGHJ2*01 & L2_IGKJ1*01
